In patent US8623366B2, “Methods for treating visceral pain by administering antagonist antibodies directed against calcitonin gene-related peptide” (Labrys Biologics, Inc., priority 2009, dated 2014):
Residue numbers refer to the chain shown, from its start. In names and notes the source's numbering stands. Where two headings read alike, the source gives them in different places. Blank lines part the entries; values can stand above or below the molecule they belong to.

Columns and labels:
[1] = molecular target: T1, α-rat CGRP (Rattus norvegicus, UniProt P01256); settings: Table 6 reproduced from WO2007/054809; cited from earlier work
T1 sequence (P01256 83-119 limits assumed): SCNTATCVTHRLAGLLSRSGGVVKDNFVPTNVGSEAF

[2] = molecular target: T2, rat α-CGRP (Rattus norvegicus, UniProt P01256); experiment: Biacore interaction analysis of Fab fragments, N-biotin α-rat CGRP on chip; assay type: binding
T2 sequence (P01256 83-119 limits assumed): T1 sequence (P01256 83-119 limits assumed)
Description: (§1) Interaction analysis was conducted at 25° C. and at 37° C. on a Biacore 3000™ system equipped with streptavidin-coated (SA) sensor chips (Biacore AB, Uppsala, Sweden) using standard Biacore running buffers (HBS-P or HBS-EP). N-LC-biotinylated human and rat α- and β-CGRPs were captured on individual flow cells at low levels (typically 100 response units) to provide the reaction surfaces, while an unmodified flow cell served as a reference channel. Purified Fab fragments of antibodies G1 and G2 were generated. Typically, Fabs were prepared as a two-fold serial dilution using 0.5 μM as the top concentration and injected for 1-min at 100 μl/min allowing up to two hours for the dissociation time. Surfaces were regenerated with a mixture of 50% v/v ethanol+25 mM NaOH for G1 Fab and 2:1 v/v Pierce Gentle Elution Buffer/4M NaCl for G2 Fab. […] The binding responses were double-referenced and fit globally to a simple model using BiaEvaluation v. 4.0 software. Affinities were deduced from the quotient of the kinetic rate constants (KD=koff/kon).
(§2) As such, the offrate (koff) cannot be measured accurately unless the dissociation phase is monitored for a very long time. As a general rule-of-thumb, the binding response decays at least 5% over the allowed dissociation time for the report of an accurate offrate. However, monitoring long dissociation times on the Biacore is hindered by baseline drift, which is particularly challenging when working at the low surface capacities required for kinetic analyses. In this study, the dissociation phase was followed for two hours over the α-CGRPs but only 20 mins over the β-CGRPs. As a result, the offrates for β-CGRPs cannot be resolved as accurately as those for α-CGRPs.

[3] = molecular target: T3, rat β-CGRP (Rattus norvegicus, UniProt P10093, R105S); experiment: Biacore interaction analysis of Fab fragments, N-biotin β-rat CGRP on chip; assay type: binding
T3 sequence (P10093 89-125 R105S limits assumed): T1 sequence (P01256 83-119 limits assumed) with E35K
Description: as §1, §2
The results for antibody G2 are expressed in Table 2.

[4] = molecular target: T4, human α-CGRP (Homo sapiens, UniProt P06881); settings: Table 6 reproduced from WO2007/054809; cited from earlier work
T4 sequence (P06881 83-119 limits assumed): T1 sequence (P01256 83-119 limits assumed) with S1A, N3D, D25N, E35K

[5] = molecular target: T5, human α-CGRP binding to the CGRP1-receptor (Homo sapiens, UniProt P06881); experiment: Binding assay: blocking 125I-human α-CGRP from binding to CGRP1-receptor on SK-N-MC cell membranes; settings: IC50 higher than Biacore KD at equivalent temperature
T5 construct: host or cells: receptor: endogenous, membranes of SK-N-MC cells
T5 sequence (P06881 83-119 limits assumed): T1 sequence (P01256 83-119 limits assumed) with S1A, N3D, D25N, E35K
Description: A binding assay was performed to measure the IC50 of anti-CGRP G1 antibody in blocking human α-CGRP from binding to the CGRP1-receptor. […] Incubation was terminated by filtration through a glass microfiber filter (GF/B, 1 μm) which had been blocked with 0.5% polyethylenimine. The protein-bound radioactivity was determined in a gamma counter.

[6] = molecular target: T6, human β-CGRP (Homo sapiens, UniProt P10092); experiment: Biacore interaction analysis of Fab fragments, N-biotin β-human/cyno CGRP on chip; assay type: binding
T6 construct: and
T6 sequence (P10092 82-118 limits assumed): T1 sequence (P01256 83-119 limits assumed) with S1A, V22M, D25S, E35K
Description: as §1, §2

[7] = molecular target: T4, human α-CGRP; experiment: Biacore interaction analysis of Fab fragments, N-biotin α-human/cyno CGRP on chip; assay type: binding
Description: as §1, §2

[8] = cited from earlier work
[9] = tested on: TNBS treated rats; experiment: Rat TNBS colitis visceral pain model, balloon distension of the colon; assay type: in vivo; settings: intravenous, FIG. 1A and 1B
Description: Colorectal distension after TNBS-induced colitis in rats is an animal model that has been used by many researchers to explore the mechanisms of visceral hypersensitivity (Gay et al, 2006, Delafoy et al, 2006, Adam et al., 2006). In this Example, the rat TNBS colitis model was used to test the effect of a function-blocking antibody for CGRP. In the model, as in the human IBS studies, the visceral pain threshold is measured by response to balloon distension of the colon.
After overnight fasting, rats were anesthetized with ketamine (80 mg/ml)/xylazine (12 mg/ml) at a dosage of 1 ml/kg. An abdominal laparotomy was performed and a TNBS solution (50 mg at 1.5 ml/kg in 30% ethanol, “TNBS treatment group”) or 30% ethanol solution (“sham group”) was injected into the proximal colon 1 cm distal from ceacum. The sham group was used as a non-colitis control. […]
The seventh day following surgery, after a second overnight fast, TNBS treated rats sustaining a weight loss of no greater than 11% were tested for visceral pain threshold with balloon distension. […] Balloon distension was halted at the threshold pressure required to elicit a stereotypical rodent visceral pain posture known as the alpha position (repeated waves of contraction of oblique musculature with inward turning of the hindpaw) and this was recorded as the visceral pain threshold.

[10] = tested on: visceral hypersensitivity (VH); settings: systemically injected; Delafoy 2006, Plourde 1997, Julia and Bueno 1997; cited from earlier work
[11] = β-rat CGRP, 37° C., Fab, 20 min dissociation
[12] = β-human/cyno CGRP, 37° C., 20 min dissociation

koff ([2]; 25° C.): 6.18e-05 s⁻¹
kon ([2]; 25° C.): 50800 M⁻¹ s⁻¹
koff ([2]; 37° C.): 0.000399 s⁻¹
kon ([2]; 37° C.): 155000 M⁻¹ s⁻¹
koff [3, 11]: <7.85e-05 s⁻¹
kon [3, 11]: 516000 M⁻¹ s⁻¹
IC50 relative to KD observed by Biacore [5]: 23 fold
koff [6, 12]: <6.98e-05 s⁻¹
kon [6, 12]: 451000 M⁻¹ s⁻¹
koff ([7]; 25° C.): 7.8e-06 s⁻¹
kon ([7]; 25° C.): 186000 M⁻¹ s⁻¹
koff ([7]; 37° C.): 3.63e-05 s⁻¹
kon ([7]; 37° C.): 587000 M⁻¹ s⁻¹
Molecule: G1: anti-CGRP antagonist antibody produced by expression vectors ATCC PTA-6867 and PTA-6866; VH SEQ ID NO: 1, VL SEQ ID NO: 2 [Clone G1]
α-rat koff [1]: 0.000399 s⁻¹
α-human koff [4]: 3.63e-05 s⁻¹

Molecule: CGRP 8-37: a CGRP receptor antagonist
half-life in-vivo [8]: very short half-life in-vivo
effect on visceral pain threshold, 4901 compared with CGRP 8-37 [9]: comparable
reversing visceral hypersensitivity (VH) [10]: effective in reversing visceral hypersensitivity (VH)

koff ([2]; 25° C.): 0.000214 s⁻¹
kon ([2]; 25° C.): 231000 M⁻¹ s⁻¹
koff ([2]; 37° C.): 0.0017 s⁻¹
kon ([2]; 37° C.): 500000 M⁻¹ s⁻¹
Kd ([6]; β-human CGRP, 25° C.): 20 nM
koff ([6]; β-human CGRP, 25° C.): 0.00162 s⁻¹
kon ([6]; β-human CGRP, 25° C.): 81400 M⁻¹ s⁻¹
Kd ([7]; 25° C.): 19 nM
koff ([7]; 25° C.): 0.00115 s⁻¹
kon ([7]; 25° C.): 60300 M⁻¹ s⁻¹
koff ([7]; 37° C.): 0.0039 s⁻¹
kon ([7]; 37° C.): 93000 M⁻¹ s⁻¹
B1: G2: anti-rat CGRP mouse monoclonal antibody as described in Wong H C et al. Hybridoma 12:93-106, 1993; VH SEQ ID NO: 19, VL SEQ ID NO: 20 (antibody, V domains shown)
VH: EVQLQQSGPELVKPGASVKMSCKASGYTFTSSVMHWVKQKPGQGLEWIGYINPYNDGTKYNEKFKGKATLTSDKSSSTAYMELSSLTSEDSAVYYCAKGGNDGYWGQGTTLTVSS
VL: EIVLTQSPTTMAASPGEKITITCSASSSISSIYLHWYQQKPGFSPKVLIYRASNLASGVPARFSGSGSGTSYSLTIGTMEAEDVATYYCQQGSTIPFTFGSGTKLEIK
modifications: Synthetic polypeptide, Antibody G2 heavy chain variable region; Synthetic polypeptide, Antibody G2 light chain variable region
binding characteristics to β-rat CGRP ([3]; reverse orientation assay format (data not shown)): comparable binding characteristics to α- and β-human CGRPs

B2: M78: G1 variant: L1 R28N T30S; L2 G50A L56T; H2 E54K A57N S58T; HC-FW3 L99T A100V (antibody, chains of the INN, looked up, variant L:R28N L:T30S L:G50A L:L56T H:E54K H:A57N H:S58T H:L99T H:A100V, V domains shown)
VH: EVQLVESGGGLVQPGGSLRLSCAASGFTFSNYWISWVRQAPGKGLEWVAEIRSKSDNTATHYAEAVKGRFTISRDNAKNSLYLQMNSLRAEDTAVYYCTVYFDYGLAIQNYWGQGTLVTVSS
VL: EIVLTQSPATLSLSPGERATLSCKASKNVSTYVSWYQQKPGQAPRLLIYAASNRYTGIPARFSGSGSGTDFTLTISSLEPEDFAVYYCSQSYNYPYTFGQGTKLEIK
Kd [1]: 9280 nM
Kd [4]: 8.19 nM

B3: M31: G1 variant: L1 R28N T30G; H2 E54K A57G; HC-FW3 L99T A100V (antibody, chains of the INN, looked up, variant L:R28N L:T30G H:E54K H:A57G H:L99T H:A100V, V domains shown)
VH: B2 VH with N57G, T58S
VL: B2 VL with S30G, A50G, T56L
Kd [1]: 201 nM
Kd [4]: 2.17 nM

B4: M26: G1 variant: L1 R28N; H2 A57G; HC-FW3 L99T A100V (antibody, chains of the INN, looked up, variant L:R28N H:A57G H:L99T H:A100V, V domains shown)
VH: B2 VH with K54E, N57G, T58S
VL: B2 VL with S30T, A50G, T56L
Kd [1]: 51.3 nM
Kd [4]: 0.93 nM

B5: M84: G1 variant: L1 R28N T30V; L2 A51H L56T; H2 E54N A57N; HC-FW3 L99T A100V (antibody, chains of the INN, looked up, variant L:R28N L:T30V L:A51H L:L56T H:E54N H:A57N H:L99T H:A100V, V domains shown)
VH: B2 VH with K54N, T58S
VL: B2 VL with S30V, A50G, A51H
Kd [1]: 978 nM
Kd [4]: 6.75 nM

B6: M38: G1 variant: L1 R28N T30W; HC-FW3 L99T A100V (antibody, chains of the INN, looked up, variant L:R28N L:T30W H:L99T H:A100V, V domains shown)
VH: B2 VH with K54E, N57A, T58S
VL: B2 VL with S30W, A50G, T56L
Kd [1]: 284 nM
Kd [4]: 1.36 nM

B7: M27: G1 variant: L1 R28N T30A; HC-FW3 L99T A100V (antibody, chains of the INN, looked up, variant L:R28N L:T30A H:L99T H:A100V, V domains shown)
VH: B2 VH with K54E, N57A, T58S
VL: B2 VL with S30A, A50G, T56L
Kd [1]: 189 nM
Kd [4]: 2.23 nM

B8: M23: G1 variant: L1 R28G; HC-FW3 L99T A100V (antibody, chains of the INN, looked up, variant L:R28G H:L99T H:A100V, V domains shown)
VH: B2 VH with K54E, N57A, T58S
VL: B2 VL with N28G, S30T, A50G, T56L
Kd [1]: 44.4 nM
Kd [4]: 0.81 nM

B9: M24: G1 variant: L1 R28L; HC-FW3 L99T A100V (antibody, chains of the INN, looked up, variant L:R28L H:L99T H:A100V, V domains shown)
VH: B2 VH with K54E, N57A, T58S
VL: B2 VL with N28L, S30T, A50G, T56L
Kd [1]: 57.8 nM
Kd [4]: 0.93 nM

B10: M37: G1 variant: L1 R28N T30S; H2 A57G; HC-FW3 L99T A100V (antibody, chains of the INN, looked up, variant L:R28N L:T30S H:A57G H:L99T H:A100V, V domains shown)
VH: B2 VH with K54E, N57G, T58S
VL: B2 VL with A50G, T56L
Kd [1]: 80.6 nM
Kd [4]: 1.41 nM

B11: M28: G1 variant: L1 R28N T30D; H2 E54R A57N; HC-FW3 L99T A100V (antibody, chains of the INN, looked up, variant L:R28N L:T30D H:E54R H:A57N H:L99T H:A100V, V domains shown)
VH: B2 VH with K54R, T58S
VL: B2 VL with S30D, A50G, T56L
Kd [1]: 69.4 nM
Kd [4]: 0.62 nM
